Each block holds one binder with its values, some of them ahead of it.
How the values were obtained:
[1] = biological target: PD1 (human) (UniProt Q15116); experiment: flow cytometry on 293T-PD1 cells, antibody 10 ng/ml; average ± deviation
[2] = biological target: PD1 (human) (UniProt Q15116); experiment: flow cytometry on 293T-PD1 cells, antibody 10 ng/ml, second anti-human Fc antibody; the filing calls this staining non-specific

PD1 (human), sequence (Q15116 25-288): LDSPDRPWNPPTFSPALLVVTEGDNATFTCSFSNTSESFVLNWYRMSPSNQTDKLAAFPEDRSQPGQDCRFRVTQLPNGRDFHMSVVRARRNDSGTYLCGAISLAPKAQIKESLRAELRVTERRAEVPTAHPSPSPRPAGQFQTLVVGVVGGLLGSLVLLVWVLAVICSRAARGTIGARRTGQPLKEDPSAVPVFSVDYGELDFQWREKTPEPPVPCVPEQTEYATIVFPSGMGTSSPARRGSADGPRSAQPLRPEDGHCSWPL

- 293T-PD1 (%) [1]: 3.15%
B1: murine CH101 (antibody, V domains shown)
VH: EVQLEESGPDLVKPSQSLSLTCTVTGYSITSGFAWHWLRQFPGNRLEWMGYIHYSGSTNYNPSLKSRISITRDTSKNQFFLQLNSVTTEDTATFYCARSDFWGQGTFVTVSS
VL: DVVMTQTPLNLSVTFGQPVSISCTSSQSLLDRDGETFMNWLFQRPGQSPKRLIYLVSKLDFGVPDRFTGSGSGTDFTLKISRVEAEDLGIYYCWQGTHFPLTFGGGTKLEIK

- 293T-PD1 (%) [2]: 38.5%
B2: CH101-huIgG1(L/S) (antibody, not shown: a dimerising Fc or GST)
heavy: B1 VH
light: DVVMTQTPLNLSVTFGQPVSISCTSSQSLLDRDGETFMNWLFQRPGQSPKRLIYLVSKLDFGVPDRFTGSGSGTDFTLKISRVEAEDLGIYYCWQGTHFPLTFGGGTKLEIKRTVAAPSVFIFPPSDEQLKSGTASVVCLLNNFYPREAKVQWKVDNALQSGNSQESVTEQDSKDSTYSLSSTLTLSKADYEKHKVYACEVTHQGLSSPVTKSFNRGEC
